Article PMC6946681, “The gastrointestinal pathogen Campylobacter jejuni metabolizes sugars with potential help from commensal Bacteroides vulgatus” (Communications Biology, 2020)

Columns and labels:
[1] = target: Campylobacter jejuni FucX (Cj0485), C-terminally six-histidine tagged (Campylobacter jejuni NCTC11168); assay: crystal structure; FucX pre-incubated with excess NADP+, space group P1, four monomers in the asymmetric unit; 23-26% PEG 4000, 0.08 M Tris pH 8.5, 0.15 M MgCl2, 20% glycerol; 2.15 Å
[2] = target: Campylobacter jejuni FucX (Cj0485), C-terminally six-histidine tagged (Campylobacter jejuni NCTC11168); assay: crystal structure; apo FucX, space group C222(1), two monomers in the asymmetric unit, tetramer generated by the crystallographic lattice; crystals grown at 18 °C in 3.4 M 1,6-hexanediol, 0.1 M Tris pH 8.5, 0.2 M MgCl2; 1.60 Å
[3] = test system: C[C@@H]1OC(O)[C@@H](O)[C@H](O)[C@@H]1O; assay: purified protein; settings: NADP+ in excess, 50 mM Tris-HCl pH 7.5, 1 mM Mg2+, room temperature
[4] = test system: NC(=O)c1ccc[n+]([C@@H]2O[C@H](COP(=O)(O)OP(=O)(O)OC[C@H]3O[C@@H](n4cnc5c(N)ncnc54)[C@H](O)[C@@H]3O)[C@@H](O)[C@H]2O)c1; assay: purified protein; settings: L-fucose in excess, 50 mM Tris-HCl pH 7.5, 1 mM Mg2+, room temperature, varied: cofactor
[5] = test system: NC(=O)c1ccc[n+]([C@@H]2O[C@H](COP(=O)(O)OP(=O)(O)OC[C@H]3O[C@@H](n4cnc5c(N)ncnc54)[C@H](OP(=O)(O)O)[C@@H]3O)[C@@H](O)[C@H]2O)c1; assay: purified protein; settings: L-fucose in excess, 50 mM Tris-HCl pH 7.5, 1 mM Mg2+, room temperature, varied: cofactor
[6] = test system: OC1OC[C@@H](O)[C@@H](O)[C@@H]1O; assay: purified protein; settings: NADP+ in excess, 50 mM Tris-HCl pH 7.5, 1 mM Mg2+, room temperature

Substance	stoichiometry N [1]	stoichiometry N [2]	Km [3] [µM]	kcat [3] [s⁻¹]	Km [4] [mM]	kcat [4] [s⁻¹]	Km [5] [µM]	kcat [5] [s⁻¹]	Km [6] [µM]	kcat [6] [s⁻¹]
Campylobacter jejuni FucX (Cj0485), C-terminally six-histidine tagged (enzyme)	4	4								
FucX (Cj0485) (Campylobacter jejuni subsp. jejuni NCTC 11168 = ATCC 700819)			233.8 ± 26.2	26.3 ± 0.7	6.05 ± 1.08	20.5 ± 2.1	9.9 ± 1.9	16.5 ± 0.7	672.2 ± 82.8	18.9 ± 0.8
